Results on 3 molecules are retold here after patent US20260232829A1 (CYTOSPIRE THERAPEUTICS, published 2026).

Sequences and labels used below:
B3: Human his-tagged NKG2D/CD314 (Acro Biosystems, NKD-H5245) (receptor, UniProt P26718 78-216, looked up)
chain: FLNSLFNQEVQIPLTESYCGPCPKNWICYKNNCYQFFDESKNWYESQASCMSQNASLLKVYSKEDQDLLKLVKSYHWMGLVHIPTNGSWQWEDGSILSPNLLTIIEMQKGDCALYASSFKGYIENCSTPNTYICMQRTV
notes: Bought recombinant protein with a His tag; also called Human NKG2D-His protein; NKG2D-His

Test [1] deals with B3. The experiment in a line: SPR (Biacore), molecule captured on anti-human IgG Fc chip, antigen as analyte, 1:1 Langmuir fit. As for the experimental part: (§1) In brief, the test molecules were first immobilized on a goat anti-human IgG (Fc specific) antibody plated on a Biacore CM5 Series S sensor chip (CFJB1172, Cytiva Cat No. 29149603) by injection at 5 nM at flow rate 30 ul/min. […] The quality of the fits was assessed by visual inspection.

Test [2] addresses T1, CYTB04.
T1 construct: Immunocytokine, Format A: anti-NKG2D IgG1 (H5/L5) with sushi-IL-15 at the C-terminus of each heavy chain
The description is as above. The protocol:
as §1

Test [3] has as its target T2, CYTB29.
T2 construct: Comparator, Format G: three chains, monovalent for NKG2D (H5/L5) and IL-15 receptor beta; wild-type IL-15
The test is described as above. The protocol:
as §1

Test [4] addresses T2, CYTB29. As to the kind of experiment: SPR avidity format, antigen immobilised on CM5 chip, test molecule injected as analyte. The source says: (§2) In order explore avidity binding effects (rather than affinity), a different assay orientation was employed. Specifically, the recombinant target human antigens (NKG2D-His or IL-15 receptor beta-His antigens, see Example 5) were immobilized on CM5 Series S sensor chips (Cytiva, catalogue number 29149603). […] Irrelevant mAbs were employed to determine and subtract background. As previously (Example 5), standard regeneration solutions and buffers were employed. To determine and compare avidity effects, test molecules were the injected in stepwise serial dilutions and sensogram responses generated.

For test [5], the target named is T3, CYTB30.
T3 construct: Comparator, Format G: three chains, monovalent for both targets; also called CYB30
The experiment in a line: SPR avidity format, antigen immobilised on CM5 chip, test molecule injected as analyte; avidity format of Table 6 (Example 6); not the capture format of Table 5.
Excerpt: as §2

B1: CYTB21 (antibody, human IgG1, kappa, V domains shown)
VH: EVQLVQSGAEVKEPGESLKISCKNSGYSFTNYWVGWVRQMPGKGLEWMGIIYPGDSDTRYSPSFQGQVTISADKSINTAYLQWSSLKASDTAMYYCGRLTMFRGIIIGYFDYWGQGTLVTVSS
VL: EIVLTQSPATLSLSPGERATLSCRASQSVSSYLAWYQQKPGQAPRLLIYDASNRATGIPARFSGSGSGTDFTLTISSLEPEDFAVYYCQQRSNWPWTFGQGTKVEIKR
notes: Control, Format E: anti-NKG2D IgG1 (H6/L6) without IL-15 components; also called CYB21; anti-NKG2D IgG1
Molecule B1 had a Kd in test [1] of 1.65 nM.

B2: Human IL-15R beta/CD122 Protein, His Tag (Acro Biosystems CD2-H5221) (receptor, UniProt P14784 27-239, looked up)
chain: AVNGTSQFTCFYNSRANISCVWSQDGALQDTSCQVHAWPDRRRWNQTCELLPVSQASWACNLILGAPDSQKLTTVDIVTLRVLCREGVRWRVMAIQDFKPFENLRLMAPISLQVVHVETHRCNISWEISQASHYFERHLEFEARTLSPGHTWEEAPLLTLKQKQEWICLETLTPDTQYEFQVRVKPLQGEFTTWSPWSQPLAFRTKPAALGKD
notes: Bought recombinant protein with a His tag; also called Human IL-15Rβ protein; IL-15 receptor beta-His
For the molecule B2, the figures for the Kd in test [2], in test [3] and in test [4] were 6 nM, 3.52 nM and 6.4 nM, respectively.

Consider B3, for which the Kd in test [2] was determined as 1.25 nM; in test [3] it was 1.92 nM; in test [4] it was 4.8 nM; in test [5], 3830 nM.
